The values below come from US10011659B2, “Compositions and methods for treating cancer resistant to a tyrosine kinase inhibitor (TKI)” (Yeda Research and Development Co. Ltd., priority 2014, dated 2018).

The test system of data set [1] is PC9ER-AZDR cells. The data set is described as follows: MTT cell survival assay. Format: cell-based, human. The settings on record: 72 hours, increasing doses. The procedure: (§1) Cell cultures—The H1975 (ATCC; NCI-H1975_CRL-5908) lung cancer cell line (EGFR mutations: L858R and T790M, ATCC; Rockville, Md.), PC9 and erlotinib-resistant PC9ER lung cancer cells (de1746-750+T790M) (described in 16) were maintained in RPMI-1640 supplemented with 10% FCS (Life technology) and antibiotics. PC9ER cells resistant to AZD-9291, denoted as PC9ER-AZDR cells, were generated by incubating PC9ER cells with AZD-9291 for three months. The dose, initially provided at 0.5 nM, was increased every 4 days per 1.5 fold up to 2.5 μM. NL20 (ATCC; NL20_CRL-2503), an immortalized human bronchial epithelial cell line (ATCC, Rockville, Md.) was maintained in F12K medium as recommended by the ATCC. Co-cultures in a ratio of 1:1 of WI38 (ATCC; CCL-75) and PC9ER or H1975 cells were maintained in DME medium supplemented with sodium pyruvate and fetal calf serum (FCS 5%; Life Technology).
(§2) Cell growth and survival—Cell survival was assessed using the 3-(4,5-dimethylthiazol-2-yl)-2,5 diphenyl tetrazolium bromide (MTT) assay (Sigma Cat#M2003). Cells were plated on 96-wells plates (2,000 cells/well) in triplicates. The medium was changed the following day and cells were treated as indicated. Following 3-4 days of incubation, MTT reagent was added to the cells for one hour followed by dissolving of the formazan crystals in SDS-DMF solution. Absorbance was measured using a microplate reader, Biorad Model 680, at 570 nm.
Background: Formazan colour is commonly taken as a measure of viable cells.

The test system of data set [2] is EGFR phosphorylation in PC9ER-AZDR cells. The data set is described as follows: Western blot (immunoblot) of EGFR phosphorylation. Format: cell-based, human. Particulars: 1 μM, 6 hours. (In general: A western blot detects proteins with antibodies after separation by electrophoresis.)
Another data set has as its system H1975 NSCLC cells. The data set can be described thus: Tumorigenic growth in-vivo, xenograft. The settings on record: for tumor growth: mAbs intraperitoneally once every three days from day 11, total 200 μg per mouse per injection. Set-up: species or system CD1-nu/nu mice.
Data set [3] relates to PC9ER-AZDR cells. The data set is described as follows: Tumorigenic growth in-vivo, xenograft. Particulars: erlotinib 50 mg/kg/d; AZD9291 1 and 5 mg/kg/d; 3×mAbs 0.2 mg/mouse/injection once every three days.
Description: A derivative of PC9ER cells (erlotinib-resistant) was implanted in the flank of immune compromised mice. Vehicle, erlotinib (50 mg/kg/d), low-dose AZD9291 (L; 1 mg/kg/d) and high-dose AZD9291 (H; 5 mg/kg/d) were daily administrated by oral gavage, while the 3×mAbs (triple antibody combination; CTX, TRZ, 33; 0.2 mg/mouse/injection) were administrated once every three days by intraperitoneal injection. Data are means±SEM from 9 mice in each group.
Tumorigenic growth in-vivo—The animal studies were approved by the Weizmann Institute's Review Board (IRB). […] In experiments evaluating the effect of the TKI AZD-9291, Vehicle (Vehicle formulation: HPMC 0.5% (sigma Cat#56340), Tween80 0.1% (Sigma Cat #P8074 in water), Erlotinib at a dose of 50 mg/kg per injection, or AZD9291 at a dose of 1 or 5 mg/kg per injection were injected daily intraperitoneally. In one experiment (FIG. 17), mice were treated daily with Erlotinib at a dose of 50 mg/kg per injection until tumors reached a size of 800 mm^3 and only then were treated as indicated. Tumor volume was evaluated twice a week and body weight was evaluated once a week. Mice were euthanized when tumor size reached 1,500 mm^3. […] Survival of the tumor bearing mice was recorded and depicted by Kaplan-Meier analysis.
Another data set deals with PC9ER NSCLC cells. The data set is described as follows: Tumorigenic growth in-vivo, xenograft. Further details: species or system CD1-nu/nu mice.
Another data set relates to H1975 cells. The data set is described as follows: MTT cell survival assay. Type of data set: cell-based, human. Particulars: for ability to inhibit survival of cultured NSCLC cells: 4 days, versus other anti-EGFR, anti-HER2, anti-HER3 mAbs (FIG. 3). How it is done:
as §1, §2

Another data set concerns PC9ER cells. The data set is described as follows: MTT cell survival assay. Format: cell-based, human. The settings on record: for ability to inhibit survival of cultured NSCLC cells: 4 days, versus other anti-EGFR, anti-HER2, anti-HER3 mAbs (FIG. 3). The procedure:
as §1, §2

The test system of another data set is PC9 cells. The data set is described as follows: MTT cell survival assay. Type of data set: cell-based, human. The settings on record: 3 days treatment with increasing doses. The procedure: as §1, §2
Data set [4] concerns EGFR, HER2, HER3, AKT, ERK and their phosphorylated forms in PC9ER cells. The data set is described as follows: Western blot time course of receptors and downstream pathways. Particulars: 10 μg/ml; for ERK activation / re-activation (phosphorylation): late peak at about 24 hours. Format: cell-based, human. How it is done: (§3) Western blot analysis—Cells were grown under specified conditions or treated as indicated. Following the cells were washed twice with cold PBS and scraped into lysis buffer [50 mM Hepes (pH 7.5), 10% glycerol, 150 mM NaCl, 1% Triton X-100, 1 mM EDTA, 1 mM EGTA, 10 mM NaF, 0.1 mM Na3VO4, and a complete protease inhibitor cocktail]. Thereafter, lysates were centrifuged at 14,000 g for 15 minutes at 4° C. The supernatant was used for subsequent procedures. Western blot analyses were conducted following protein separation using gel electrophoresis and transfer to nitrocellulose membranes. Immunoblotting was performed according to the antibody manufacturers' recommendation. Blocking was done using 5% milk in PBST (0.5% Tween20 Sigma Cat#P9416). Antibody binding to membrane blots was detected using horseradish peroxidase—secondary antibodies (Jackson ImmunoResearch Laboratories), followed by treatment with ECL Western blotting detection reagents (GE Healthcare).

The subject of data set [5] is EGFR, HER2, HER3 and phosphorylated forms in PC9ER and H1975 cells. The data set is described as follows: Western blot after long-term exposure to anti-EGFR mAb. Particulars: resistant cell lines. Type of data set: cell-based, human. How it is done:
as §3

[6] abbreviates: 3 days treatment with increasing doses, EGFR T790M.

“Also recorded” adds a separate entry of the source.

Description for H1975 NSCLC cells: Tumorigenic growth in-vivo—The animal studies were approved by the Weizmann Institute's Review Board (IRB). CD1/nude mice (Harlan Laboratories) were randomized in groups of ten mice and injected subcutaneously in the right flank with H1975 lung cancer cells (3×10^6 per mouse) or with PC9ER lung cancer cells (4×10^6 per mouse). PBS or mAbs were injected intraperitoneally once every three days at a total dose of 200 μg per mouse per injection starting 11 days following cells injection, until tumors reached the size of 1,500 mm^3. In experiments evaluating the effect of the TKI AZD-9291, Vehicle (Vehicle formulation: HPMC 0.5% (sigma Cat#56340), Tween80 0.1% (Sigma Cat #P8074 in water), Erlotinib at a dose of 50 mg/kg per injection, or AZD9291 at a dose of 1 or 5 mg/kg per injection were injected daily intraperitoneally. In one experiment (FIG. 17), mice were treated daily with Erlotinib at a dose of 50 mg/kg per injection until tumors reached a size of 800 mm^3 and only then were treated as indicated. Tumor volume was evaluated twice a week and body weight was evaluated once a week. Mice were euthanized when tumor size reached 1,500 mm^3. Few of the tumors were harvested from mice at the indicated time points and taken for further evaluation. Survival of the tumor bearing mice was recorded and depicted by Kaplan-Meier analysis.
Description for PC9ER NSCLC cells: CD1/nude mice (Harlan Laboratories) were randomized in groups of ten mice and injected subcutaneously in the right flank with H1975 lung cancer cells (3×10^6 per mouse) or with PC9ER lung cancer cells (4×10^6 per mouse). PBS or mAbs were injected intraperitoneally once every three days at a total dose of 200 μg per mouse per injection starting 11 days following cells injection, until tumors reached the size of 1,500 mm^3. […] Few of the tumors were harvested from mice at the indicated time points and taken for further evaluation. Survival of the tumor bearing mice was recorded and depicted by Kaplan-Meier analysis.

As for `C=CC(=O)Nc1cc(Nc2nccc(-c3cn(C)c4ccccc34)n2)c(OC)cc1N(C)CCN(C)C` [AZD-9291], the “survival / sensitivity (MTT)” value in the data set with PC9ER-AZDR cells [1] is “lost sensitivity”; with PC9ER-AZDR cells [1] (listed as AZD9291), “clearly demonstrated resistance”. For the same molecule, the EGFR phosphorylation entry in [2] is “remained phosphorylated”; in [2] (listed as AZD9291), “failed to inhibit EGFR phosphorylation”. Besides, the body weight gain entry in the data set with H1975 NSCLC cells (AZD9291 5 mg/kg/day, compared with the triple mAb combination) is listed as “slightly inhibited body weight gain”. Moreover, the “growth of the erlotinib-resistant human NSCLC tumor” value in the data set on H1975 NSCLC cells (AZD9291 5 mg/kg/day, triple combination of antibodies (CTX+TRZ+33)) is “comparably inhibited growth”. For the same molecule, the “tumor growth / tumor volume” value in the data set with PC9ER-AZDR cells [3] was “Neither erlotinib nor AZD9291 (at both low and high doses) were able to significantly inhibit tumor growth”. Also, the “tumor relapse in post-treatment phase” value with PC9ER NSCLC cells (erlotinib 1st line to approximately 550 mm^3, 2nd line treatment to day 50, then no treatment, AZD9291 1 or 5 mg/kg/d, 3×mAbs 0.2 mg/mouse/injection) was “relapse of tumors; also recorded: rapid and dramatic relapse”.

For the molecule `C#Cc1cccc(Nc2ncnc3cc(OCCOC)c(OCCOC)cc23)c1` [erlotinib], the results for the cell survival entry with H1975 cells (setting [6]), in the data set with PC9ER cells (setting [6]) and with PC9 cells were “exhibited resistance”, “exhibited resistance” and “strongly inhibited”, respectively. Besides, the “tumor growth / tumor volume” value in the data set with PC9ER-AZDR cells [3] was “Neither erlotinib nor AZD9291 (at both low and high doses) were able to significantly inhibit tumor growth”. Also, in the data set with PC9ER NSCLC cells (erlotinib 50 mg/kg/d versus control group), the “tumor growth, 1st line phase” value is recorded as “no differences were noted”.

B1: mAb 33: anti-HER3 monoclonal antibody, clone NG33; VH SEQ ID NO: 5, Vkappa SEQ ID NO: 6 (antibody, V domains shown)
VH: DVQLQESGPGLVKPSQSLSLTCSVTGYSITSGFYWSWIRQFPGNKLEWMGYIAYDGTSNYNPSLKNRISITRDTSKNQFFLKLKSVTNEDTPTYYCARGGGYYGQLLDYWGQGTSVTVSS
VL: DARMTQSPSSLSASLGDRVTISCRASQDISNYLNWYQQKPDGTVKVLIYNTAKLHSGVPSRFSGSGSGTDYSLTISNLEQEDFATYFCQQGKTLPWTFGGGTKLELK
modifications: anti-HER3 33 VH amino acid sequence; anti-HER3 33 Vkappa amino acid sequence
On to B1, for which the “ability to inhibit survival of cultured NSCLC cells” value (shortened to “ability to inhibit survival”) with H1975 cells (10 μg/ml) and in the data set with PC9ER cells (10 μg/ml) was “superior ability to inhibit survival” in each case. The tumor growth entry with H1975 NSCLC cells was “neither anti-HER2, anti-HER3 nor combined anti-HER2 and anti-HER3 treatment repressed tumor growth”.

B2: mAb 565: anti-EGFR monoclonal antibody, clone 565, CNCM I-4262; VH SEQ ID NO: 1, Vkappa SEQ ID NO: 2 (antibody, V domains shown)
VH: QVQLQQSGAELVKPGASVKLSCKASGYTFTNYWIHWVKQRPGQGLEWIGEIGPINGRSNYIEKFKTKATLTVDKSSSTTYLHLSSLTSEDSAVYYCAREDDYDGKAMDYWGQGTSVTVSS
VL: DIVMTQSHKFXSTSVGDRVSITCKASQNVGTAVAWYQQKPGQSPKLLIYWTSTRHTGVPDRFTGTGSGTEFTLTINNVQSEDLADYFCQQYSGYSFGGGTKLELKR
modifications: not fully specified; anti-EGFR 565 VH amino acid sequence; EGFR 565 kappa amino acid sequence; (11)..(11) Xaa can be any naturally occurring amino acid
Consider B2, for which the “EGFR protein level (degradation)” value in data set [4] was “almost disappeared”. Moreover, in data set [4], the “ERK activation / re-activation (phosphorylation)” value is on record as “hyper-phosphorylation”. The “phosphorylation of EGFR” value in data set [4] (listed as anti-EGFR mAb) is recorded as “initially reduced; also recorded: strikingly strong re-phosphorylation”. In addition, the inhibition of survival entry with H1975 cells (10 μg/ml, 4 days of incubation) is given as “approximately 40%”; with PC9ER cells (10 μg/ml, 4 days of incubation) it was “approximately 40%”. Also, the “ability to inhibit survival” value in the data set with H1975 cells (10 μg/ml) and in the data set on PC9ER cells (10 μg/ml) was “superior ability to inhibit survival” in each case. Also, the “HER2 and HER3 and their active tyrosine phosphorylated forms” value in data set [5] was “up-regulation”. Further, the “expression levels of EGFR” value in data set [5] was “gradual decrease”. The tumor growth entry in the data set on H1975 NSCLC cells is “partly inhibited tumor growth”.

B3: mAb 12: anti-HER2 monoclonal antibody, clone N12, CNCM I-4112; VH SEQ ID NO: 3, Vkappa SEQ ID NO: 4 (antibody, V domains shown)
VH: QVQLQQSGAELVRPGDSVNLSCKASGYTFTSYWMYWIKQRPDQGLESIGNIHPNNGGTNYSGKFKNKASLTVDKSSTTAYMQLSSLTSEDSAVYFCARLTGIGMDYWGQGTSVIVSS
VL: DIVMTQSHKFMSTSVGDRVSITCKASQNVGTAVAWYQQKPGQSPKLLIYWTSTRHTGVPDRFTGTGSGTEFTLTINNVQSEDLADYFCQQYSGYSFGGGTRLEIKL
modifications: of anti-HER2 N12 VH amino acid sequence; anti-HER2 N12 Vkappa amino acid sequence
With B3, in data set [4], the “ERK activation / re-activation (phosphorylation)” value is listed as “induced ERK hyper-phosphorylation”. Further, the “ability to inhibit survival” value with H1975 cells (10 μg/ml) and in the data set on PC9ER cells (10 μg/ml) was “superior ability to inhibit survival” throughout. In addition, the tumor growth result in the data set on H1975 NSCLC cells is “neither anti-HER2, anti-HER3 nor combined anti-HER2 and anti-HER3 treatment repressed tumor growth”.
